Data taken from the domain aggregation screens of Martell et al. (2025).

Experiment: soluble fraction after stress (log2 fold change); higher = more stays soluble; pooled small domains, quantitative proteomics
Conditions: stress: 75 degC
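Further: 20 min heating vs room temperature control held 20 min.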

Sequence	soluble fraction (log2)
HMSREQARRFYFDTWAKHRASQPLTDLEKIALTVMLLHPEYHSLLDKPDHYVDKDYSPEAGQTNPFLHM	-1.72
HMSRIDRKGLTSQIVNHLSKNPGKNFTLKQFFRNLKLNTHPLKMLAVDVLNKLLDTNFITRNEDGEFFLKA	0.154
HMSRLMIVTPDGRIMDDVPEFGEVRTTTDVNGRVLVLDRNNVVIGFEMTPREYRREFGRNPF	-1.12
HMSRQAPIGHRIRGRRKDIGMTQNALAKAAGISPSYLNLIEHNRRSIGGGLLMRIAAILDIHPHTL	-2.87
HMSRTLLVYVTGAVRQPGVYELPEGSRFFDAVKAAGDVLPYAVMEDINMAEPLSDGMKIHIPLDPEQ	-0.687
HMSRVFSPSELEIRHAQDVFQALEEAKRQGKGAVSLNGKMIDAPIVARAKLVLEAAAAIYGED	-0.379
HMSRVHHGFNISIARNRKGLKQAALADMLGISQQRLSQLENQRVVKDEILEKVSEATGVSVEDLKTIE	-0.08
HMSRVSVDGEEVNFEGEIPDDPSRIYELLMGALSEQSRVVVKFFVDGKDALLDEGFPSRYQMIEAESV	-0.0462
HMSRYAFEGNVVRLNQKDFDSWKALFTNIDLVSELTRLDIEFTHDKPKNWFSTASAKLNYQNKNAY	-2.51
HMSRYLLPYAFARTQQVLLEEKSGELTLWMHSGSNLGGISEVTRKYAVQHVTHEPMDALLNRISSAYAN	-3.34
HMSSAVKRALAELPENWRMIVYYRVVEGLSYAEIAKVLDIPDGSVMSGLHRGKKMLRGLLLEYAQQEGYD	-1.79
HMSSDDEAFKRELVGLIPHLRAFARTLTGDPTAADDLAQDAMMKAWDARASYQMGTNMKAWTFMILRNQFY	-2.53
HMSSDKVWSFEASGKQLQASYVAFENETVYLRASEDGSLLQFPLTDFGMKDQLVVLELYELSAKINRSN	-0.934
HMSSDLSNVVKIIDTLKHKKGALLPILHQIQREIGYIPLKTIDTIAKKLQQTPAEIHGVISFYHQFRTS	0.0116
HMSSEASALRGWLQTSQYQGSVTLFANALNVPLKTVEDWVYGRSKPSLQHWSQLYEATGLPEYQQ	-0.387
HMSSFRDISGTVYVKASAANLRSEPNTSSLIVDTLYYGASLQRISTNDIWTKVKTGNGQIGFMDNSLFQT	-3.12
HMSSGSLLTEREIEILAEMAKGLTNKAIGEKLFISVATVKTHILNIYRKLEVSSRVTAVNKAKQMRL	-2.43
HMSSGTAYATDAVNVRSGPGTSYTVLGYLSRGEKVTITGTVSNGWTQIQLPGNRLGYVSSAYLSASYPS	-0.85
HMSSHNIALDQDVVVTQLKGKVYLVAADGSQKQLAEGDILPKDAVLITPEGASFKGGNQTFTLS	0.103
HMSSIFTRIIAGEIPSYKVAEDENYYAFLDINPLTKGHTLVVPKMEVDYIFDLDDKTLAGMMLFAKKG	-0.129
HMSSKIKYSEFITMLDKGEVESVVLKSDTLTITLKHGTGVAAQTKTTTLMEDLSELTKRLEKAGIKDFDK	-1.38
HMSSLDTLTARETQILAEMAQGKNNAAIAAAVSVSERAVEKHTNSIFAKLGLSEEKDVNRRVMAVLLFLGR	-3.6
HMSSLEQVYPNPVSSILKLNSFIKNYKILNATGHEVLKGSGNTINVGKLPSGSYFLITSENYSIKFIK	-1.08
HMSSLSGVRRTLLDSLGMPPDASDEELADRREELRGSLDTAPQARRKWIEQQLARIDAITALDASG	0.106
HMSSPEAAEVQRLLKDGQHVQALKIIDESLARNPKDPQMRFRRGVALSMLDRKNEALAVFQKLVED	-0.182
HMSSPRAIYSAIQKAVGEDMILYREDVQIILDKLDADLLVDDILEKMELDGTLVRQRDGTWLLL	-0.801
HMSSQVFLGQKNSIAKYDLNENKPIWTKEIKGTPLILSTWKDMLLIQIQTWVSYTHMLVKQENGQTVWE	0.288
HMSSRLEIEITSKIDDLSHTWRAVGAKQPKGNIKSSLLPSGVKVGETFRVEADFLLDGIEIVSVLPP	-1.86

Sequence	soluble fraction (log2)
HMSSSLDQLTVREREILAQVSRGLSNKAIARELGISHDTVKLHVRHILSKLGFSSRVEAAVFAIEHRIG	-2.35
HMSSSMDAIAEIIRSIPRGDHLTAPEVYELAKQRGLKLSLSTVYRTLNKLKVVGDVITVSGDRGLRYESV	-0.336
HMSSTPEPPQAVLDLVNLREQARAGKDWTQSDAFRQQIAALGWTVKDTKDGPVVSLSPTTTE	0.392
HMSSTSTMTVAEATIGRKVKHDKFGEGTIITVADVNGDKKLTIAFNQQGVKMLMLSMAKLEL	-3.36
HMSSVEVWINGKSSGLTSDNRAQILQQLPAESIERIEVIDNPSAKFSAEGSAGIINIVLKKD	0.195
HMSSVRDNGDLELVPGDRIRHDDYGEGRVTAVTGVGSKRIAHAVFDSVGERKLLIKLSPIEKI	-0.0574
HMSSWMTKDGKIKPISKWAGVPMTSQQQADYAAGKVVELTNIPDKQGQLNTVYLKFNPEKQRPTTSLNDPR	-0.00849
HMSSYETVTLNGQRYFKYKVKSGEGLYAISRMFSTPIAEIIRHNPSSNAGLKNGQELLIPVN	-0.356
HMSSYMQMQLERLESLLQKNDLTDSDKYDIRQLVEDLDKVPESVSPNLVGAYMTIKNRYASVLKTVL	0.0189
HMSTANISIEQAKEIALNHANLTSNQVIFSRTELDYDNGIQKYEVEFYYNNREYSYEINANTGDILGYEQ	-0.722
HMSTANIVVPDVKGKTFEEAKKAIEAEGLTAKAEGDESGVVQKTSPSYGVSVESGSEVTLTLVKSDD	0.494
HMSTDNINYKNILIASLLIHAAKIDENYTENEKNIIKKALIELDEIDSKKADEIMILAEKKE	-0.265
HMSTGYEMVREVANQGSFSKAANSLGVSGPAVSKQVKSLEERLGLVLFHRTTRAVSLTQAGRQLVDVLN	0.114
HMSTIKEKIIQYLDFKGISKYDFYQKTGVSNGVLSQKSGMSEDNIMRFLSYYDDINTDWLFYGKGEMIKT	-2.06
HMSTKLLEVNIFDDSKWVNKTIMDSDIPEDILIVMIKRGDEVIVPKGSTIINKGDILVLSANNFDNLLN	-2.45
HMSTMTEQEAFGLWERINDFIARTGNEPNRNSNDAHEVRMAEALNFIRIKVAEQRNSQSNSEAQNN	-0.263
HMSTNDIFISGDKLVLKNTTGQMDVFDMAGRKVLSSTNNVSEMNVSSLPKGVYVVSASIGGSKMKAKVYK	0.536
HMSTQGRRIEILRHLTQTKKKADVNFVELGRTFGTSDTTIRKDLDWLIKNEYWENHGEWKPTQAGLNMI	0.0518
HMSTRKAFVNGDGVRLRSGPGTNHSIRASLTKGQTVFVTGTKDGWASVSVQGGASGWVSADLLKYE	0.59
HMSTRYVRTPAGQAEIQARVFKLSRPVRNLLLVINDSRSIDDWLVQVHGITADDVAMLRAEGLIAEVS	-3.06
HMSTSEQVYTTDKVNVRREADTSSEKLGSLEKGTAISRTGTEGEWSVVNYGGVTGYIKTEFLTTEQPQ	0.63
HMSTSFQVQVSVLDLRIRKEPTVKGQEVGKISKGIHTITETRSADGYTWGKLESGQGWIALEFTTKLD	-3.72
HMSTSLIEFTIDRNNSIANKMIMDANIPEDILVVMIKRNGDVFVPNGSTKILPGDILVLSGNKLKY	-1.69
HMSTTDGIERFLASGAVKGIGRTMAARIVEHFGSRTLTVMESEPERLTEVAGIGRKKAESIAASYAELS	-0.247
HMSTTYAPYLLGETEQEAIRMARNAGLDPQVVRQSDKSEAGTVILQSHDFGFAMKRGAVILITVSSGPLQ	-2.13
HMSTVTEVHYIAFKNGRIVDIKAALTGSAVTATSIKEQPKIENYNYTTSEVRDGILYHTYAPVA	-2.37
HMSVADNALSRQAIESRIALFIQNEDPNHPRSDADIQKELAQAGVVISRRAITKYRNHLHIPSASLRRR	-1.16
